Patent US20030028904A1 (published 2003)

Target: T1, His-tagged Dock180 (UniProt Q14185 1-1865)
T1 construct: also called His-Dock180; CED-5/Dock180; not shown: His tag
Test: co-immunoprecipitation, anti-FLAG IP and anti-Dock180 blot, COS-7 cells (FIG. 20B lane 9)
Text: COS-7 cells were transfected with the indicated plasmids and the lysates were immunoprecipitated with anti-FLAG antibody and immunoblotted with anti-Dock180 (a mixture of N- and C-terminal antibodies). The same blot was stripped and reprobed with anti-FLAG to determine expression of the FLAG-tagged proteins. Immunoblotting of total lysates indicated the expression of Dock180 in the appropriate lanes. FIG. 20C is a photograph of a blot showing that ELMO1 and ELMO2 interact with Dock180. COS-7 cells were transfected as above with plasmids coding for FLAG-tagged ELMO1, ELMO2, the N-term or C-term versions of ELMO1 along with His-Dock180. After anti-FLAG immunoprecipitation, the coprecipitation of Dock180 was analyzed by immunoblotting. FIG. 20D is a photograph of a blot showing that CED-12 interacts with CED-5, but not Rac in a yeast two-hybrid assay. Interaction between Caenorhabditis elegans CED-12 and CED-5 as well as Rac wt and mutants were analyzed by yeast two-hybrid interaction as described in the Experimental procedures. Growth seen on selective plates is shown. FIG. 20E is a photograph of a blot showing that formation of a trimeric complex between ELMO1, CrkII and Dock180. […]
It was determined whether there might be a physical interaction between ELMO1 and Dock180, Rac or CrkII. […]

binding result: no binding
B1: FLAG-tagged human CED-6 (other, UniProt Q9UBP9 1-304, looked up)
chain: MNRAFSRKKDKTWMHTPEALSKHFIPYNAKFLGSTEVEQPKGTEVVRDAVRKLKFARHIKKSEGQKIPKVELQISIYGVKILEPKTKEVQHNCQLHRISFCADDKTDKRIFTFICKDSESNKHLCYVFDSEKCAEEITLTIGQAFDLAYRKFLESGGKDVETRKQIAGLQKRIQDLETENMELKNKVQDLENQLRITQVSAPPAGSMTPKSPSTDIFDMIPFSPISHQSSMPTRNGTQPPPVPSRSTEIKRDLFGAEPFDPFNCGAADFPPDIQSKLDEMQEGFKMGLTLEGTVFCLDPLDSRC
notes: not shown: FLAG tag
